The values below come from patent publication US20240383953.

Data set [1] has as its system HIV TAT cell-penetrating peptide (HIV). Briefly: FP. The following applies: given as Ka in nM; n=1.1±0.1; not all DNA bound at 0.9 uM in EMSA, no FCCS bridging. For orientation: A gel shift assay detects complexes by their altered migration in electrophoresis.
In data set [2] the test system is T1, WR 1-3wRRK peptide (synthetic construct (human NANOG derived)).
T1 sequence: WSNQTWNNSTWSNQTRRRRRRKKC
Kind of data set: FP. The following applies: given as Ka in nM; n=2.1±0.5; almost all DNA bound at 60 nM in EMSA.

Data set [3] has as its system WR 1-4wRK peptide (synthetic construct (human NANOG derived)). Kind of data set: FP. The following applies: given as Ka in nM; cooperativity n=3.3±1.2.
Data set [4] shares this test system. Briefly: EMSA. The conditions noted are these: 50% free DNA; DNA bridging by FCCS from 1 uM.

WR 1-4wRK peptide (synthetic construct (human NANOG derived)), sequence (chain, as listed by the source): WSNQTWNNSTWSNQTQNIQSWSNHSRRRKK

On to “GATA6 40 bp DNA (two NANOG cognate sites)”, for which the K half amounted to 260 nM in data set [1], 180 nM in data set [2], 340 nM in data set [3] and 1000 nM in data set [4].
